Reference: patent US20250011397A1 (HOSPITAL FOR SICK CHILDREN, published 2025)
Where “and” joins values, the source holds several entries; their conditions need not be identical. Equal entries are not always repeated.

T1: mouse FcγRI (mouse, UniProt P26151 25-297)
T1 sequence (looked up): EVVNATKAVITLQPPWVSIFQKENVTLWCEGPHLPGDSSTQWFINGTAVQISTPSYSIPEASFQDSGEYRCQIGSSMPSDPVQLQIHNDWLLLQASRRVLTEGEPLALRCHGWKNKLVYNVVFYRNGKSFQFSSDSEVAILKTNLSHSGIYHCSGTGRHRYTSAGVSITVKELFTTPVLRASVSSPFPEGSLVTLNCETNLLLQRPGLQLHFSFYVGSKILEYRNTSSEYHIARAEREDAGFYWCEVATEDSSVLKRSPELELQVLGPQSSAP

T2: mouse FcRn (mouse, UniProt Q61559 22-297; P01887 21-119)
T2 sequence (looked up) 1: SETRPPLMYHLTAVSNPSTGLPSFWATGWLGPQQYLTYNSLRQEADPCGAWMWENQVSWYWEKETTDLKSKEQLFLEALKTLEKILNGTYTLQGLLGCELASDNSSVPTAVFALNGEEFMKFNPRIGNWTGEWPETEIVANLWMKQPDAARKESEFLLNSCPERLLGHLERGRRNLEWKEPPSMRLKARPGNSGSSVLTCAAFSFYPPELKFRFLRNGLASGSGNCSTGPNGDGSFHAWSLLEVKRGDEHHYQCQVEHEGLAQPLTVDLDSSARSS
T2 sequence (looked up) 2: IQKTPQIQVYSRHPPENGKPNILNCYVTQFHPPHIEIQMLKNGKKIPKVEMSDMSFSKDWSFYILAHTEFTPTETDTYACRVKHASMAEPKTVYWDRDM

B1: 4A8 IgG (antibody, V domains shown)
VH: EVQLVESGAEVKKPGASVKVSCKVSGYTLTELSMHWVRQAPGKGLEWMGGFDPEDGETMYAQKFQGRVTMTEDTSTDTAYMELSSLRSEDTAVYYCATSTAVAGTPDLFDYYYGMDVWGQGTTVTVSS
VL: EIVMTQSPLSSPVTLGQPASISCRSSQSLVHSDGNTYLSWLQQRPGQPPRLLIYKISNRFSGVPDRFSGSGAGTDFTLKISRVEAEDVGVYYCTQATQFPYTFGQGTKVDIK
notes: also called IgG 4A8
B2: HD37 (anti-hCD19) mouse IgG2a, parental IgG (antibody)
chain: DILLTQTPASLAVSLGQRATISCKASQSVDYDGDSYLNWYQQIPGQPPKLLIYDASNLVSGIPPRFSGSGSGTDFTLNIHPVEKVDAATYHCQQSTEDPWTFGGGTKLEIKRADAAPTVSIFPPSSEQLTSGGASVVCFLNNFYPKDINVKWKIDGSERQNGVLNSWTDQDSKDSTYSMSSTLTLTKDEYERHNSYTCEATHKTSTSPIVKSFNRNECGGSSGSGSGSTGTSSSGTGTSAGTTGTSASTSGSGSGGGGGSGGGGSAGGTATAGASSGSGSSGSSSSGGTGTGQVQLQQSGAELVRPGSSVKISCKASGYAFSSYWMNWVKQRPGQGLEWIGQIWPGDGDTNYNGKFKGKATLTADESSSTAYMQLSSLASEDSAVYFCARRETTTVGRYYYAMDYWGQGTSVTVSSSQSFPNVFPLVSCESPLSDKNLVAMGCLARDFLPSTISFTWNYQNNTEVIQGIRTFPTLRTGGKYLATSQVLLSPKSILEGSDEYLVCKIHYGGKNRDLHVPIPSKPCPPCKCPAPNLLGGPSVFIFPPKIKDVLMISLSPIVTCVVVDVSEDDPDVQISWFVNNVEVHTAQTQTHREDYNSTLRVVSALPIQHQDWMSGKEFKCKVNNKDLPAPIERTISKPKGSVRAPQVYVLPPPEEEMTKKQVTLTCMVTDFMPEDIYVEWTNNGKTELNYKNTEPVLDSDGSYFMYSKLRVEKKNWVERNSYSCSVVHEGLHNHHTTKSFSRTPGK
notes: also called mIgG2a control; HD37 single chain IgG2a

Experiments:
[1] = biological target: SARS-CoV-2 Spike on HIV-based pseudotyped virus (Spike plasmid BEI NR52310) (SARS-CoV-2, UniProt P0DTC2 14-1273); assay: cell-based or functional assay
[2] = biological target: T1, mouse FcγRI
[3] = biological target: T2, mouse FcRn
[4] = biological target: T2, mouse FcRn; assay: pH 5.6

Binder	Median IC50 (PsV neutralization) [1]	Kd [2] [nM]	koff [2] [s⁻¹]	kon [2] [M⁻¹ s⁻¹]	kon [3] [M⁻¹ s⁻¹]	Kd [4] [nM]	koff [4] [s⁻¹]
B1	> 100 µg/mL and > 0.66 µM						
B2		8.63	0.000451	52200	116000	1.06	0.000123
